Assay results as given in patent publication US20180170997A1 (NATIONAL CANCER CENTER, published 2018).

How the values were obtained:
[1] = molecular target: T1, activation-inducible tumor necrosis factor receptor (AITR) on human T cells (human, UniProt Q9Y5U5 26-241); assay: flow cytometry on stimulated PBMC subsets
T1 construct: whole, on cells; also called GITR; TNFRSF18
T1 sequence (looked up): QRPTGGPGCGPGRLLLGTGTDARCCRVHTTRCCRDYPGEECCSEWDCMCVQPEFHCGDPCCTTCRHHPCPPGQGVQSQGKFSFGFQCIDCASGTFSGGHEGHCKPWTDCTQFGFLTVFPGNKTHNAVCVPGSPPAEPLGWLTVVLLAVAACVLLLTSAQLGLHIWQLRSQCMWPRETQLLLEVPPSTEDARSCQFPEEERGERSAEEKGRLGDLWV

[2] = molecular target: T2, AITR on AITR-overexpressed Jurkat cells (CD5L-AITR-TM-ECD) (human, UniProt Q9Y5U5 26-183, limits assumed); assay: flow cytometry on AITR-overexpressed Jurkat cells
T2 construct: domain: transmembrane domain (TM)-ECD; also called pcDNA3.1(+)/CD5L-AITR-TM-ECD
T2 sequence (looked up): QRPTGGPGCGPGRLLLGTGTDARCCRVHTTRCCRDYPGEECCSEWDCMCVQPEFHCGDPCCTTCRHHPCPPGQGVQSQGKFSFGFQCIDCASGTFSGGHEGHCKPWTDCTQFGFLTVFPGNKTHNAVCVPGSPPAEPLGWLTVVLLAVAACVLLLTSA
Method: In the flow cytometry experiment, the present inventors used fluorochrome-conjugated antibodies against CD4, CDS, CD11c, IFN-γ, Foxp3, CTLA-4, CD62L, CD45RO, CD45RA (BD Bioscience), CD19, CD56, CD14, CD127, IL-4, IL-17A, GATA-3, T-bet, RORγt (ebioscience, San Diego, Calif.), and BDCA-2 (Miltenyi Biotec). […] Intracellular level of cytokines was measured after 5 hour-long pre-incubation with 50 ng/ml phorbol 12-myristate 13-acetate (PMA), 10 μg/ml ionomycin, and 10 μg/ml Brefeldin A (Sigma-Aldrich, St Louis. Mo.). FACSCalibur flow cytometer (BD Bioscience) was used for all of the flow cytometry analysis and WinMDI software (Ver. 2.9, Scripps. Institute) was used for data analysis.
For generating AITR-overexpressing cells, the gene fragment encoding AITR-transmembrane domain (TM)-ECD was inserted in-frame with CD5L sequence in a mammalian vector pcDNA3.1(⁺), i.e. pcDNA3.1(⁺)/CD5L-AITR-TM-ECD. Then pcDNA3.1(⁺)/Empty vector or pcDNA3.1(⁺)/CD5L-AITR-TM-ECD vector was transient transfected into Jurkat cells by electroporation. AITR expression on cell surface was detected by staining with biotin-conjugated anti-AITR mAb.

B1: anti-AITR mAb B32 (antibody, V domains shown)
VH: EVQLLESGGGLIQPGGSLRLSCAASGFTFSTYGMSWVRQAPGKGLEWVSGITGSAGGGSTNYADSVKGRFTISRDNSKNTLYLQMNSLRAEDTAVYYCAKGYSSNWRSAFDIWGQGTMVTVSS
VL: SYELMQPPSVSVSPGQTAGITCSGDALPKQYAYWYQQRPGQAPVLLIYKDTERPSGIPERFSGSSSGTTVTLTISGVQAEDEADYYCQSADSSGTYPVFGGGTKLTVL
notes: also called clone B32
binding result [1]: binds | binding result [2]: binds
